Assay results as given in patent publication US20030099656A1 (published 2003).

What was measured:
SdrG = molecular target: T1, SdrG (UniProt Q9KI13 50-597); assay: ELISA, SdrG
T1 sequence (looked up): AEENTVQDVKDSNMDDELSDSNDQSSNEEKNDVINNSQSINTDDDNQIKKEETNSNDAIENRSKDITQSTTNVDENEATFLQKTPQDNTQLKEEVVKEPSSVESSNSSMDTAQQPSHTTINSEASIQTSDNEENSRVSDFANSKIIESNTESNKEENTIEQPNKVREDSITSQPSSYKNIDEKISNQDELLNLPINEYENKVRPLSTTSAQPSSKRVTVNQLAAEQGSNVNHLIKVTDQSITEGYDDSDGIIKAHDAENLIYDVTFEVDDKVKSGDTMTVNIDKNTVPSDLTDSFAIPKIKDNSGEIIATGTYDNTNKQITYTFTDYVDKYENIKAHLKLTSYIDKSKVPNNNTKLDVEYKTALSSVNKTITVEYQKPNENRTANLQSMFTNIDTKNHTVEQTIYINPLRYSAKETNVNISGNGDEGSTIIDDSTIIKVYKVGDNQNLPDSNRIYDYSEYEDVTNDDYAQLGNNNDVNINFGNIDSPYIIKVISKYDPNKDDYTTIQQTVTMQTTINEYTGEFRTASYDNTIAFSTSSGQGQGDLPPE

[1] = molecular target: T2, ClfA on S. aureus strain 397 SAL6 cells (Staphylococcus aureus strain 397 Sal 6); assay: flow cytometry, 3 hr culture
T2 construct: whole, on cells
Description: (§1) As well, Newman ClfA::emr (ClfA knockout) and NewmanSpa::kan (Protein A knockout) were analyzed in the same manner as specificity controls. Following incubation with antibody, bacterial cells were incubated with Goat-F_{(ab′)2}-Anti-Mouse-F_{(ab′)2}-FITC which served as the detection antibody. […] For each bacterial strain, 10,000 events were collected and measured.

[2] = molecular target: T3, ClfA on S. aureus strain 206 SAL5 cells (Staphylococcus aureus strain 206 Sal5); assay: flow cytometry, 3 hr culture
T3 construct: whole, on cells
Description: as §1

[3] = molecular target: T4, ClfA on S. aureus strain 67-0 cells (MRSA) (Staphylococcus aureus strain 67-0); assay: flow cytometry, 3 hr culture
T4 construct: whole, on cells
Description: as §1

[4] = molecular target: T5, ClfA on S. aureus strain 203 SAL2 cells (Staphylococcus aureus strain 203 Sal 2); assay: flow cytometry, 3 hr culture
T5 construct: whole, on cells
Description: as §1

[5] = molecular target: T6, ClfA on S. aureus strain 4046 USA cells (Staphylococcus aureus strain 4046); assay: flow cytometry, 3 hr culture
T6 construct: whole, on cells
Description: as §1

[6] = molecular target: T7, ClfA on S. aureus strain 203 Singapore cells (Staphylococcus aureus strain 203); assay: flow cytometry, 3 hr culture
T7 construct: whole, on cells
Description: as §1

[7] = molecular target: T8, ClfA on S. aureus strain Newman cells (wild type) (Staphylococcus aureus strain Newman, UniProt Q53653 40-899); assay: flow cytometry, 3 hr culture
T8 construct: whole, on cells; also called Newman WT; Newman-WT
Description: as §1

[8] = molecular target: T9, ClfA on S. aureus strain 451 SAL4 cells (Staphylococcus aureus strain 451 Sal 4); assay: flow cytometry, 3 hr culture
T9 construct: whole, on cells
Description: as §1

[9] = molecular target: T10, ClfA on S. aureus strain 189 Japan cells (Staphylococcus aureus strain 189); assay: flow cytometry, 3 hr culture
T10 construct: whole, on cells
Description: as §1

[10] = molecular target: T11, ClfA on S. aureus strain 49 Europe cells (Staphylococcus aureus strain 49); assay: flow cytometry, 3 hr culture
T11 construct: whole, on cells
Description: as §1

[11] = molecular target: T12, ClfA on S. aureus strain 560 SAL 1 cells (Staphylococcus aureus strain 560 Sal 1); assay: flow cytometry, 3 hr culture
T12 construct: whole, on cells
Description: as §1

[12] = molecular target: T2, ClfA on S. aureus strain 397 SAL6 cells; assay: flow cytometry, overnight culture
Description: as §1

[13] = molecular target: T3, ClfA on S. aureus strain 206 SAL5 cells; assay: flow cytometry, overnight culture
Description: as §1

[14] = molecular target: T4, ClfA on S. aureus strain 67-0 cells …; assay: flow cytometry, overnight culture
Description: as §1

[15] = molecular target: T5, ClfA on S. aureus strain 203 SAL2 cells; assay: flow cytometry, overnight culture
Description: as §1

[16] = molecular target: T6, ClfA on S. aureus strain 4046 USA cells; assay: flow cytometry, overnight culture
Description: as §1

[17] = molecular target: T7, ClfA on S. aureus strain 203 Singapore …; assay: flow cytometry, overnight culture
Description: as §1

[18] = molecular target: T8, ClfA on S. aureus strain Newman cells …; assay: flow cytometry, overnight culture
Description: as §1

[19] = molecular target: T9, ClfA on S. aureus strain 451 SAL4 cells; assay: flow cytometry, overnight culture
Description: as §1

[20] = molecular target: T10, ClfA on S. aureus strain 189 Japan cells; assay: flow cytometry, overnight culture
Description: as §1

[21] = molecular target: T11, ClfA on S. aureus strain 49 Europe cells; assay: flow cytometry, overnight culture
Description: as §1

[22] = molecular target: T12, ClfA on S. aureus strain 560 SAL 1 cells; assay: flow cytometry, overnight culture
Description: as §1

[23] = molecular target: T8, ClfA on S. aureus strain Newman cells …; assay: flow cytometry on S. aureus cells (FIG. 3)

T8 sequence (Q53653 40-899): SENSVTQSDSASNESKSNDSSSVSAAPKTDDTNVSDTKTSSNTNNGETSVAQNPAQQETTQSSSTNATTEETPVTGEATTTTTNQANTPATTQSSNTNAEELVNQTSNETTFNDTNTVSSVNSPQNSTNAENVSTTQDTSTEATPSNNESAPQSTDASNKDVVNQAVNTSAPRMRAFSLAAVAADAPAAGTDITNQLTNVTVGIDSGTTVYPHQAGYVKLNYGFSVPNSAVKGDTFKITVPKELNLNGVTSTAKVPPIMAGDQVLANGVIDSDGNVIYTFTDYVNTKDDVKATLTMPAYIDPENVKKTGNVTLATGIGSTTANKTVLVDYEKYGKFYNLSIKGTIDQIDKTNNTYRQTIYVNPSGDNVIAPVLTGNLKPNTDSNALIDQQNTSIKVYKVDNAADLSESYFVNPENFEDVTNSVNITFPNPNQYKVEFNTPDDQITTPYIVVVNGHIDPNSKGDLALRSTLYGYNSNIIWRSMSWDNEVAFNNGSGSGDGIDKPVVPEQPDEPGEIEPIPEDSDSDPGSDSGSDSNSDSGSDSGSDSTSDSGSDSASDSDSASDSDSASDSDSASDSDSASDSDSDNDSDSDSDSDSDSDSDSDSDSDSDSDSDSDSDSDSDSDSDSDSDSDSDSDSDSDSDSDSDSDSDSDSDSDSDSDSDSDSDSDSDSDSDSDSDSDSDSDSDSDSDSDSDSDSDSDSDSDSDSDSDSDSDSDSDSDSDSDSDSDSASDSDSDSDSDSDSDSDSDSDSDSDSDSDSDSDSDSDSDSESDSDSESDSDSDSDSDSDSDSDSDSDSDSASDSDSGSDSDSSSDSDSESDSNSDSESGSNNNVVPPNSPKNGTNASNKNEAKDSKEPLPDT

B1: ClfA monoclonal antibody 12-9 (antibody, V domains shown)
VH: QVQLKESGPGLVAPSQSLSITCAISGFSLSRYSVHWVRQPPGKGLEWLGMIWGGGNTDYNSALKSRLSISKDNSKSQVFLKMNSLQTDDTAMYYCARKGEFYYGYDGFVYWGQGTLVTVSA
VL: NIMMTQSPSSLAVSAGEKVTMSCKSSQSVLYSSNQKNYLAWYQQKPGQSPKLLIYWASTRESGVPDRFTGSGSGTDFTLTISSVQAEDLAVYYCHQYLSSYTFGGGTKLEIK
notes: also called F12-9; Mab 12-9
- binding result (SdrG): no binding
- Fluorescence Intensity (Geometric Mean) [1]: 28.9
- Fluorescence Intensity (Geometric Mean) [2]: 8.8
- Fluorescence Intensity (Geometric Mean) [3]: 11.2
- Fluorescence Intensity (Geometric Mean) [4]: 16.1
- Fluorescence Intensity (Geometric Mean) [5]: 27.7
- Fluorescence Intensity (Geometric Mean) [6]: 22.1
- Fluorescence Intensity (Geometric Mean) [7]: 30.8
- Fluorescence Intensity (Geometric Mean) [8]: 1.1
- Fluorescence Intensity (Geometric Mean) [9]: 11
- Fluorescence Intensity (Geometric Mean) [10]: 7.3
- Fluorescence Intensity (Geometric Mean) [11]: 28.8
- Fluorescence Intensity (Geometric Mean) [12]: 62.1
- Fluorescence Intensity (Geometric Mean) [13]: 33.5
- Fluorescence Intensity (Geometric Mean) [14]: 27.6
- Fluorescence Intensity (Geometric Mean) [15]: 40.4
- Fluorescence Intensity (Geometric Mean) [16]: 23.5
- Fluorescence Intensity (Geometric Mean) [17]: 15.4
- Fluorescence Intensity (Geometric Mean) [18]: 44.3
- Fluorescence Intensity (Geometric Mean) [19]: 12.9
- Fluorescence Intensity (Geometric Mean) [20]: 15.7
- Fluorescence Intensity (Geometric Mean) [21]: 11.3
- Fluorescence Intensity (Geometric Mean) [22]: 36.1

B2: Chimeric monoclonal antibody 12-9 (antibody, V domains shown)
VH: B1 VH
VL: B1 VL
notes: also called Chimeric 12-9; recombinant chimeric 12-9
- binding result [23]: binds
